# According to a protein production outcome set (Wang et al. 2014):
# Test: label from the status in PepcDB records
row,Sequence,protein production
1,MKKFVTLLLCMLPVSLFAQVNDGIRQAMDNYDYETVVTLIEPDCQDSLLLITKAQALKAMNRYPEAIGVLNSLILKDSTNTKVLIDLAECYKLTGNSRRAANCYQKAMNLQPENKFFRLQFIRSLLASEDYEEARTACHGWLERDSLSATGYKYLGQAYEGLQDAASAFLSYNIAYRRDSLDAQTVARIAGIFNNNQQFKDAVDVTEVYRLSDTTNIDVNRQNAKAYCMLKEYGTAVKRYESLKELGDRSFLTLYYLGVSHYGDNWFYGAYDNLKEAYQKNPMDVNVLYYLAKASARTSWKKEGVEYMEEAFRIAVPSDSMMVRLYDGLVECYDYAGDTKKEVEALEKLYIYTKKNSILYKIACLYDWKEDEKNAIRYYRKYMATVSEDQRYALDEDGNPVEDRITLYQQAWKRIKKIKEEGFFRGDIPTKSFPVEKKDTLALRHAK,failed
2,MKKGFSALVEHNGYRVLVDTGTDGKILLNNMEGLGIDPNSIDALFLTHGHYDHTGGIAELLKARKDTLDVYAHPRIFEKRIALKPKRRDIGIPFSQEELESLGAIFHLNDKALEFLPGLISSGEIKRETWDRAVGYLLNNEKDPVRDDMALLIDLGDKIAVITGCGHSGILNIAKHAVEISKKPIRALIGGFHLRGASITILEDAVRGLKELNVEMLYPGHCTGIDEYAYLRMKLKAEHLNVGKEIVIK,failed
3,MKKGRFKRNWPIILFGIIVFIFSFYFKISPKSLKNFTDIMSASLSFSAIVTAIFFASFSLIPTSGSNKLVVMMEDLGTEIKIMDRLLVATFLSFISSLLSFISLFFSKTDTDLISILVVSSWLSSTVMMFLSSFFVLRTLILLVETYNNFKNK,failed
4,MKKIVILIISVLLLGGIIGGVYYFKNANKIGADASYVKITKDPTKSNEISFNNNYTLPAYDENGKETEVTFSADKELRKGAYLKLYIKEDKGVTSFEEVPEKEVPAKAAEKLKLEHHHHHH,failed
5,MKKKDMNKQVKIQDAVAAIILAEGPAGVSTTKVAKRVGIAQSNVYLYFKNKQALIDSVYARETNRILSTTDLDRLSDSTIDVTTRIRLYVQQVYDYSLANPDSLTIIQQIKALNGQGMTISAADADPNNIVANLLTAAIDAKVIKQLPVSLHMGVVFSTIHTHTTNISKGRYAQDQYTFGDIFQMIWDAMKQD,not failed
6,MKKKKAHAAGAGPKLSVTNPPRTFFEDTLALFNSRRFDLLDQKINEAVNKWPNHAVVWKAIGVIMLMEGRFKEAIEPLTTAANLAQGDAQLHHNLGVAYLRLEQYEKAVPWLQRATSLKPDYAQAFANLGIAQAEIGLLQAAESNYRTALKINKDFPEALNNLGNVLNDQKRYGEAEECFRRALVLKPDFAEALNNLGTSLKGLNRLEEAETTYRKSLSLMPDYTRAHIGLGHTLFKLRQPDKAAASFRRAIELSPYELEAHDGLSMTLGDTVPLWHLPMMNDKPRNDAYFNALQAAVTPETRVLEIGTGSGLLSMMSARLGARHVTTCEVVTAIAETAASIVKDNGFADQVTVIPKLSTTLEVGVDLEERADLLVSEILSSEFLGEGVLSSIEDAKRRLLKPGARIIPARGSVRIALFGGRDIEMNVRVDEVYGFDLSRFNDIVPPKQYVGRNDLNIELLSDGIGAIHFDFMGTDHFPTSRSYGIDVPITRAGRCCGVIQWIRLEMDDTFVFENHPAERNVASGWQHCVYLFKTPVDVQPGQVAQIIASHDIRTCWFFLKKIVTP,failed
7,MKKKLKLTSLLGLSLLIMTACATNGVTSDITAESADFWSKLVYFFAEIIRFLSFDISIGVGIILFTVLIRTVLLPVFQVQMVASRKMQEAQPRIKALREQYPGRDMESRTKLEQEMRKVFKEMGVRQSDSLWPILIQMPVILALFQALSRVDFLKTGHFLWINLGSVDTTLVLPILAAVFTFLSTWLSNKALSERNGATTAMMYGIPVLIFIFAVYAPGGVALYWTVSNAYQVLQTYFLNNPFKIIAEREAVVQAQKDLENRKRKAKKKAQKTK,failed
8,MKKKMITTIIAMLVIVVMLLPTKLGPVIDKYNPFYKTKEYYTVVNTIGQHVGDEWYEYEFIAFDERGKEQKIKKTVKHMLKRDEMLKVYAKGRYGESIEEIEAVNIPINAKSKLLSMRLEHHHHHH,not failed
9,MKKKNNNKLHYLDSKGKLYTSGLRSDTKEKYGEIPSSNKNHNLIEKYNELQSLLSKEEEKYDFVKNELGDLQKQKDLLKWHLCNNIKKLSMKRSDYKFKTETKSKLESKLKSLKDMNKIHKFEHDTLEELVHKMEQELETKMYIKNDIENIFNECINKKDEYLKDITQERISVFKERKKRQNQLQKLLLIMKQENNKNYNINYLKKYESNLMNEINSYKNYKDFETKIAMDLIDDHSLNDLYVT,failed
10,MKKLAISIGDINSIGLEILVRSHEELSKICTPFYFIHESLLNKALKLLNLKLFNAKIVAFKDDKDYEFNFIKKENSLEIYSFCLPLGFKVDENFEIQAGEIDAKSGLYGFLSFKAASYFVYEKHAHALLTLPIHKKAWEDAGLKYKGHTDALRDFFKKNAIMMLGCKELFVGLFSEHIPLAKVSKKITFKNLSIFLKDFYKETHFKKMGLLGFNPHAGDYGVIGGEEEKIMEKAIAFVNAFLHSKKDEKFFKKALKDENLQKELLLNFKGKGVYLPYPLVADTAFTKTGLKNCNRLVAMYHDLALAPLKALYFDKSINVSLNLPIIRVSVDHGTAFDKAYKNAKINTKSYFEAAKFAINLHSKA,not failed
11,MKKLGFVLFMSMFAFVSVVPAAEAKVIDHDKVQGFSEVTPVTVSQKAAKRFQPYLKVASGCVPFPAVDAQGNTSGGLEPTGAPEGHCSKSVGQVYSRSAWYNGVWAIMYAWYFPKDSPLPLKAFGHRHDWEGIVVWIDNPANQNPKVLSIAYSQHGKFQKTAPNNNIMEGDHPKIRYDAPQPPINHSLYVDSAKGGTQPLIGWEDLTPAARNALNTTDFGSANVPFNDHNFTNNLGKAWFR,failed
12,MKKLILYTLILLLMSCRSTQEVDTSVYMDAKQPVDKRVEALLAQMTLEEKVGQMDMVTVWDKEAIFKNGYYDFGAWLADLEPEECNQLQKLSEQTRLKIPYLIGMDAAHGYAMLTGRTIFPTSISMAATFNRELIYRTTSKAGEEIRSSGIHWAFAPCIDIVQDARWGRTGETYGEDPFLTSELVKEAIRGYQGNENPFKKVAVSVKHLVGGGASVGGCNHASAELSERALRSYFLPPFKAAIEAGCMTIMPGHNDIAGVPVHASKWLLTDIIKQEYGFKGFFISDMGDVENLATSLHQIAENQKEAVCKSVNAGLDMHMYSADSARFVSPLVELVREKKVSSRRIDDAVRRILKIKFELGLFEKRYVSPEEDSYGSKENKALALEAAREAIVLLKNDRQILPLDRTKYKKILVTGPNADNQSILGDWSIFQPDDHVTTILEGIQAAASPEQSILYSNSGRIKAKKSDLSVNTTDPAIQKKLITEGGGISDYSIDDAVRKARQSDLAIVAIGGYGIRSEWGLRTYGESADRPSIDFYGRQLELVQAIHATGTPVVIVIVNGKPLNNEWITKNIPTIVDVWEPGMYGGQALAEILFGEVNPSGKLPITIPKHAGQIPMYYYQRPSRYWTGYGLGSSREDEKPAFCFGHGLSYTSYEYSGLKIDSVIPQTQDIEFTFTVKNTGNMAGKETALVFIRDCVSSVVTPVACLKGFEKVSLNPGESKDIRIVIPYSDLGLWNEDMKYVVESGKFNLMIGRSVEDIRIKKDFFIK,failed
13,MKKLINRVDDVLSEQLQGFAKAHPEINLHPSSFYVTRHDAPVKGKVALLSGGGSGHEPMHAGFVGKGMLDGACPGEIFTSPTPDKMYDCAKAIDSGEGVLMIVKNYTGDVLNFETATELLHDEGVKIATVLVDDDVAVKDSLYTAGRRGVANTVLMEKLLGAAAERGDTLDDLVKLGHQINNNGFSIGIALQACTVPAAGKPSFTLPENEMEFGVGIHGEPGIDRRPFTSLNDTVDAMFNTLIENGHYQRTIRSWDRVNGDWIEETQEKQPLKSGDRVIALVNNLGATPLSELYGVYHRLALCCENFGLNIERSLIGSYCTSLDMSGISITLLKVDDALLTLWDAPVATPAMTK,failed
14,MKKLLLSLTLTVLLGLLGRPAIAANYEIKLVDEGVFAAIALPEGKAASNALIIITPHQVILAGAHFVPEGIKELIADIAEITPLPLRSVILTHHHKGFNYVDFDFPANVEIITSWQTWQALKAETRPLRNPVTFFEKGLTLLRSNTTIVLSSADFGHTEGDVFLFLPNEGILFASDLFYNDVVGYMGEGHMRDWVITLETLEAVGAQYVVPGLGQVTDRSGLRRFRLFFKDFLTEVLRHMEAGKTLAETKKLFRLPAHEGMPGYKAFLDVNLDRAYQDLRDQ,failed
15,MKKNIRLLTHNEIPRVWEIDRTELIERLYVLQQGQLVLSEQRFDMKGWPEGEAEHYTPVLLESAERGAPFWGVFEDDKLVAATSVDPQWRGQDNTLLQLSFLHISHQQRGQGLARILFDYCVEYAKQKGASGLYISSTPSENSVNFYQHMGCRLIDVPDTELYEREPEDIHLVLNFNKED,failed
16,MKKNIVVLVLIVLIIFSAGSGCISSDVISSANTSSDEADGNTGENSALGKSADSEPDQANITPYGKSSPYLYWEYELGDVTPENTLGGRSSVQDCVSFAPDGKSVATGTGSNLTVVSVSEKNVLWTKILSGNISDLTFSEDGKYLLVGEKSADGCIYSLDANTGEEIRTYRTSDDLGTDSNPKYQPCIYKITAAEDSVYVAAGRYWKDSKYGLASRVYGFSPDGTFSWKLPATENYARSVNWIDASQDGKNVVYSIGDWTNSLESDAVVYSVDAGGKLRWKYEIPALRPYFVSAAIWHGLDVSEDGSLVTAYTGDGRTYLFYDAEMKDPGDGKSEWYSEEYQSNVTTPEELEGSAIYTYGENAKIAADNEILYLTGATLPAYYPDNIPMAHPLENSLISCDAEKGETSWTYNLGGRCAGIFFSQDMRYFVLPVGKDTSTGDTRVHGVYVFDSRKSGNGNSKLLWTFRTEGVVENAAISSNCTVAAVEVPLQLENGDVTGKHRLIIVR,failed
17,MKKNKIGGSQSMFNKVWFRTGIFFIMLFILIKLFMEVHEVFAPIATIIGSVFLPFLISGFLFYICLPFQNILEKWGFPRWASITTIFIGLIVIIAIVVSFIAPIIISNINNLIKQTPSLQKEAEQLINFSLRQMDKLPDDVTHRINKAVKSMGDGATSILSNSVSYITSFISTVFLLIMVPFFLIYMLKDHEKFIPAIGKFFKGERKVFVVDLLKDLNFTLKSYIQGQVTVSIILGIILYIGYTIIGLPYTPLLVLFAGVANLIPFLGPWLSFAPAAILGIIDGPSTFIWVCVVTLIAQQLEGNVITPNVMGKSLSIHPLTIIVVILAAGDLGGFTLILVAVPLYAVIKTLVSNIFKYRQRIVDKANSNVKD,failed
18,MKKNKLTTLALILPITILTPIVIASCTNKTKVKKSSSLDKIASNLKLEYFNNKANTKASSVQKDEIKKPLNLPNDVVFSVKDVFVSHKDQSVLIVKYTLKKGNEIQEYTYEIKGFKSVYEKDKIVNDLSQANEDFKKIVNNIRLKDTFDFKLAAFPNQNYDQLLPSQIYKNYYQGIEIQQHKYQNELDIKIINFLYPDGDFGSANKNGTLKLSLMLTDKKNNQVYYKLLEVSGFKSNPYGVDENGTIPGIGTERLKPKNQDDYFSKTQLQRYEIDNEGYLQILKRQNNDKNWKELRPDLNATVSDIKHFDEKAKNVGQDSYESAAYKGFTLPVYESDGKISGLALAGKDTPKGPSWVDAIGRNQWQIGGLPRTLPNEKYRQEAMQTFSLGILNNDSHKNNTYNKTAGTTWILDYQKTSDNKYPTKWYFATNLHVADAINENTLSINLMRLMDSAQIKTTFRLSNLDENIYNFGFRSKEHGKNLLNHGLKKIFDGRDFLKTKPAEYLINSQKEKYKDVGNFTDFAVFELDFEKLELVNVWKNFLGENNGLVTKYNNYNPQELAKVITSNYANNKNNQIKFLSKSYLSDYSKIDVPLKYRQEDAKTWFKKYDELFALGWPNSTEDFFFKAYVDDDQLKYRTRDNFSLWTNSDYRFFNNLTQQEGGQPAFPPERTERGNYLSYAIGFRSFIQKPGIVDAFIAVPQIGNNLYTSSDNKKYINMGLEYLPKHFAPAGGASGTSVRNQKNELVAIYHAKYDSSKTGLAAAFRSEGYDYQGLYGNYNLPQYDLIYGGGKDQTEKKSYREAMKDIYQNNNIKTALFPDGFDKIPDEFKFNNN,failed
